Assays:
[1] = system: K562 erythroleukemic cells; assay: 55Fe uptake from labeled diferric transferrin in erythroleukemic K562 cells; assay type: cell-based, human; conditions: 25 minutes at 37°C
Procedure: Human plasma-derived apo-transferrin (Calbiochem 616419, tissue culture grade, pyrogen-free) is supplied lyophilised from 10mM phosphate buffer, pH7.4. The transferrin mutein is expressed, purified and quantified as described above.
For iron-55 uptake from labeled diferric transferrin, K562 erythroleukemic cells, cultured in RPMI cell culture medium under standard conditions (bicarbonate-buffered, 5% (v/v) CO2, antibiotics, 10% (v/v) fetal calf serum) are washed with serum-free medium containing HEPES-buffer and 1 mg/ml of bovine serum albumin and used at a concentration of 10 million cells/ml in this medium. The samples tested are prepared as equimolar concentrations of apo-transferrin mutein. Apo-transferrin mutein is loaded with iron according to a standard procedure (Bates and Schlabach, J Biol Chem, 248, 3228-3232, 1973) using ferric nitrilotriacetate as iron source. Typically 50µl of 1 M NaClO4 is added to 450µl of the transferrin mutein stock-solution (pH is alkaline to neutral). The ^55Fe -NTA-loading-buffer is prepared by mixing 8.5µl 50mM NTA (pH 8.25), 18.9µl 0.1M Tris, 98.8µl Millipore-purified water and 7.5µl ^55FeCl3 in 0.5 N HCl (NEN products). 500µl of transferrin mutein is carefully mixed (dropwise) with the ^55Fe -NTA-loading-buffer and then 310µl of 5mM Hepes. NaOH/0.1M NaClO4 is added. The mixture is incubated at 4°C for 60 min following which it is deslated on a PD-10 column (containing Sephadex G-25) and dialysed. The PD-10 column is equilibrated with 5ml of equilibration buffer (5mM Hepes/NaOH, 0.1M NaClO4, 0.1 g BSA (Amresco)) then washed three times with 5ml of wash buffer (5mM Hepes/NaOH, 0.1M NaClO4). […]
Increasing concentrations of human plasma transferrin or the transferrin mutein sample (0, 25, 100, 200, 400, 800, 1600 nM), labeled with ^55Fe, are mixed with 25 µl of medium. […] The lysates are neutralized with 1 M HCl after overnight lysis, mixed with Readysolv Scintillation cocktail and counted in the Packard Liquid Scintillation Counter. […]

[2] = target: T1, transferrin receptor 1 (TfR1) (Homo sapiens, UniProt P02786); assay: Transferrin receptor 1 binding by Surface Plasmon Resonance (SPR, Biacore); conditions: fluorescein conjugated sample
T1 construct: purchased AbD Serotec 9110-300
T1 sequence (P02786 whole entry): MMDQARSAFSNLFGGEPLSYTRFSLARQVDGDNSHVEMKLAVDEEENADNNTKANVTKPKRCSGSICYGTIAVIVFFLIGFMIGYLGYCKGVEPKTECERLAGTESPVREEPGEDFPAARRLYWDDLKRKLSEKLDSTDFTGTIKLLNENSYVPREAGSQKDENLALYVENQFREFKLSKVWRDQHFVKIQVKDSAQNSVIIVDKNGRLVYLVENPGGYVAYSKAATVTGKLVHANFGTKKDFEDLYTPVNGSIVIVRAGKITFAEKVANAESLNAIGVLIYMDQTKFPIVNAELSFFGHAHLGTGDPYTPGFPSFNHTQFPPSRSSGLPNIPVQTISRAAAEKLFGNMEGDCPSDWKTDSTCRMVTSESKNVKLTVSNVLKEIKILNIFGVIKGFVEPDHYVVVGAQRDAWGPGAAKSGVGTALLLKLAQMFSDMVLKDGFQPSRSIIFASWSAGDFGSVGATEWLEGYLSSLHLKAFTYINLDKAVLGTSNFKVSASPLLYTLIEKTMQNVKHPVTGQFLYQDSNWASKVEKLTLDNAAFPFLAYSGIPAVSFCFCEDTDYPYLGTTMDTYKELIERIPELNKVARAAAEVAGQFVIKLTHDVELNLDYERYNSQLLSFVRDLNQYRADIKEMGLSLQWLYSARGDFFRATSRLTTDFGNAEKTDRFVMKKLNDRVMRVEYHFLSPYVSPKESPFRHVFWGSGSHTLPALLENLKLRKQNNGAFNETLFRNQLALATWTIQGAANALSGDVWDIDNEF
Source text: The receptor binding capability of the recombinant transferrin variants can be determined by Surface Plasmon Resonance (SPR) analysis. The binding activity of a transferrin sample to a transferrin receptor can be measured using surface plasmon resonance (SPR) a non-invasive optical technique in which the SPR response is a measure of change in mass concentration at the detector surface as molecules bind or dissociate. A sample is sent onto the surface of the sensor chip via a micro flow system at a constant flow rate. In this analysis, if the transferrin sample is able to bind to the Transferrin Receptor the mass on the surface sensor chip is increased due to binding between Transferrin Receptor and Transferrin molecules creating a surface plasmon wave, and a shift of the SPR signal proportional to the binding quantity can be detected as a change in the resonance unit (RU). […]
The binding capacity of human serum transferrin to human trabnsferrin receptor 1 may be measured by SPR. […]
The receptor binding capability of the recombinant transferrin variants was assessed by Surface Plasmon Resonance (SPR) analysis. The binding activity of a transferrin sample to transferrin receptor can be measured using surface plasmon resonance (SPR) a non-invasive optical technique in which the SPR response is a measure of change in mass concentration at the detector surface as molecules bind or dissociate. […]

B1: Fluorescein conjugated thio-transferrin (S28C, S415A, T613A): Thiotransferrin (S28C, S415A, T613A) conjugated with fluorescein (conjugate, UniProt P02787 20-698, looked up, variant S28C S415A T613A)
Serotransferrin: VPDKTVRWCAVSEHEATKCQSFRDHMKCVIPSDGPSVACVKKASYLDCIRAIAANEADAVTLDAGLVYDAYLAPNNLKPVVAEFYGSKEDPQTFYYAVAVVKKDSGFQMNQLRGKKSCHTGLGRSAGWNIPIGLLYCDLPEPRKPLEKAVANFFSGSCAPCADGTDFPQLCQLCPGCGCSTLNQYFGYSGAFKCLKDGAGDVAFVKHSTIFENLANKADRDQYELLCLDNTRKPVDEYKDCHLAQVPSHTVVARSMGGKEDLIWELLNQAQEHFGKDKSKEFQLFSSPHGKDLLFKDSAHGFLKVPPRMDAKMYLGYEYVTAIRNLREGTCPEAPTDECKPVKWCALSHHERLKCDEWSVNSVGKIECVSAETTEDCIAKIMNGEADAMSLDGGFVYIAGKCGLVPVLAENYNKADNCEDTPEAGYFAIAVVKKSASDLTWDNLKGKKSCHTAVGRTAGWNIPMGLLYNKINHCRFDEFFSEGCAPGSKKDSSLCKLCMGSGLNLCEPNNKEGYYGYTGAFRCLVEKGDVAFVKHQTVPQNTGGKNPDPWAKNLNEKDYELLCLDGTRKPVEEYANCHLARAPNHAVVTRKDKEACVHKILRQQQHLFGSNVADCSGNFCLFRSETKDLLFRDDTVCLAKLHDRNTYEKYLGEEYVKAVGNLRKCSTSSLLEACTFRRP
modifications: fluorescein conjugate
- Specific iron ptake Bmax ([1]; 55Fe-labeled sample 0-1600 nM, specific uptake (unspecific binding with hundredfold excess unlabeled diferric transferrin accounted for)): 2430±125 fmol^55Fe/10^6 cells 25min
- Total Iron Uptake Bmax ([1]; 55Fe-labeled sample 0-1600 nM, total uptake): 3294±170 fmol^55Fe/10^6 cells x 25min
- Kd ([1]; specific uptake, read-out: Specific iron ptake Kd x): 154 ± 32 nM
- ability to bind to transferrin receptor 1 (measured by SPR) [2]: able to bind to transferrin receptor 1

Source: patent EP2216341A1, “Transferrin variants and conjugates” (Novozymes Biopharma UK Limited, priority 2009, dated 2010)
